Measurements taken from US20220119492A1.

Molecular target: T1, human IL-2Rβ (CD122 protein, Fc Tag) (27-239) (human), P14784
T1 chain: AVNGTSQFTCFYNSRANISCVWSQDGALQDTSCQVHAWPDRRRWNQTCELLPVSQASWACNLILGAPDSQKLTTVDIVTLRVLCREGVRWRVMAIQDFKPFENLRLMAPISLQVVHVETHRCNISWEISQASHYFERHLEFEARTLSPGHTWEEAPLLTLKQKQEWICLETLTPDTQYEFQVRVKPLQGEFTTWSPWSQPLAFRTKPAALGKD
Test: competitive binding ELISA (Example 28)

CCYQAMVGDLCDFC (modifications not checked) [IL-2Rβ ligand SEQ ID NO: 83]
IC50: < 10 µM
